Patent US20240067950A1, “MEANS AND METHODS FOR DETOXIFYING OCHRATOXIN A” (DSM Austria GmbH, priority 2020, published 2024)

Assays:
[1] = Thermostability assay (residual OTA hydrolyzing activity after 10 min heat incubation); type: physicochemical; settings: 10 min incubation at 45, 55, 65, 75 or 85 ° C.; 0.1 mg/mL in 20 mM Tris-HCl pH 7.5; relative to 4° C. reference aliquot
Method: To determine the kinetic stability of the produced enzymes towards temperature, thermostability assays were performed. To this end, purified protein samples were diluted to a protein concentration of 0.1 mg/mL in 20 mM Tris-HCl buffer pH 7.5 and aliquots were incubated in a thermocycler for 10 min at either 45, 55, 65, 75 or 85 ° C. After this incubation, the aliquots were stored at 4° C. until further analysis. A reference aliquot was stored at 4° C. throughout the incubation. Subsequently, all aliquots were assayed for residual OTA hydrolyzing activity using the assay described in Example 2. Residual enzyme activities were calculated relative to the reference aliquot. The temperature range in which 50% of the initial activity was lost after the incubation, in relation to the reference aliquot was determined.

[2] = OTA hydrolyzing activity assay (specific activity); type: biochemical; settings: 37° C., 200 ng/mL OTA in 100 mM sodium phosphate buffer
Method: To determine the specific activity of recombinant target polypeptides produced e.g. as described in Example 1 above in units per liter (U/L), ochratoxin A (OTA) hydrolyzing activity assays were performed. One unit is defined as the amount of enzyme necessary for hydrolysis of 1 μmol or OTA in 1 min when using a starting OTA concentration of 0.495 μM.
OTA hydrolyzing activity assays were set up in a final volume of the reaction mixture of 200 μL, containing the recombinant enzyme preparation (preferably diluted to yield a volumetric activity of 1-10 mU/L), and 200 ng/mL OTA in 100 mM sodium phosphate buffer.
Specific activities were determined at pH 6.0 and pH 7.5. As soon as all components of the reaction mixture were mixed, OTA hydrolysis was followed at 37° C. on a fluorescence spectrophotometer (BioTek Synergy H1 MFD Multimode microplate reader) by following the reduction in fluorescence at ex/em 390 nm/450 nm.
For calculation of the specific activity, the initial linear part of the recorded fluorescence reduction curve was used. In addition to the fluorescence-based method described above, OTA hydrolysis was also determined by using the HPLC-MS method as described by Dellafiora et al. 2020, Toxins 12, 258, essentially confirming the fluorescence-based results. The specific activities for the polypeptides having amino acid sequences of SEQ ID NOs: 1-4 at different pH are shown in Table 1.

[3] = Piglet feeding trial, OTA in plasma and urine by HPLC-MS; type: in vivo, piglets; settings: for OTA concentration, plasma samples, Day 14 / OTA concentration, urine samples, Day 14: piglets; for % OTA reduction, plasma samples / % OTA reduction, urine samples: day 14
Method: To verify the applicability of the produced enzymes as food or feed additive, piglet feeding trials were conducted. To this end, sufficient amounts of the polypeptide of SEQ ID NO: 1 were produced by cultivation of E. coli transformants in bioreactors. The cell broth was homogenized and centrifuged. The supernatant was concentrated, dried by lyophilization and formulated as a powder by grinding. The enzymatic activity of the thus obtained lyophilized powder was determined, and the powder was mixed with feed for the feeding trial as described in the following.
Five piglet groups were studied based on the following five experimental diet setups: 1) Base feed; 2) base feed+50 ppb OTA; 3) base feed+50 ppb OTA+169 mU of the enzyme of SEQ ID NO: 1 per kg of feed; 4) base feed+500 ppb OTA; 5) base feed+500 ppb OTA+169 mU of the enzyme of SEQ ID NO: 1 per kg of feed.
Each trial group consisted of four piglets weighing approximately 7-8 kg, who were coming out from weaning and adapted to solid diet before being fed the experimental diet as described above. The duration of the feeding trial (i.e. actual days of feeding the experimental diet) was fourteen days. Collectively each trial group consumed around 15 kg of feed. No piglets fell sick to any unexpected disease throughout the feeding trial. Urine and blood samples were collected on day 0, just before starting the experimental diet, and on day 14.
Extraction of OTA was performed from plasma and urine samples for subsequent analysis by HPLC-MS. 200 μL of sample was thoroughly mixed with 800 μL of extraction solution (containing 99% of ethyl acetate and 1% of phosphoric acid, 85%) followed by centrifugation at 19000×g for 5 min for phase separation. 50 μL of upper phase was diluted with 50 μL of acetonitrile, followed by HPLC-MS analysis. The H PLC-MS method as described by Dellafiora et al. 2020, Toxins 12, 258 was used to determine the changes in OTA concentration in the samples taken during the trial upon consumption of the experimental diets. The results are shown in Table 3 using the diet setup numbering as indicated above.

[4] = diet setup 3: base feed+50 ppb OTA+169 mU enzyme per kg of feed
[5] = diet setup 5: base feed+500 ppb OTA+169 mU enzyme per kg of feed

B1: SEQ ID NO: 4: OTA-hydrolyzing polypeptide 4 of the present invention, recombinantly produced in E. coli (protein)
chain: MARDPLPADVRLLIRNNMASAHPQVPTIDGLDSKTQNDVFTAIDAINNDMRDLSLAIHENPELGFKEVKAHANLVKALSKLGFTITNPTSLETAFVATWSNGSGGRTFGFNAEYDALPGIGHACGHNLIAIVAVASAVGCKAAMEKQGISGTIKVIGSPAEEGGGGKIILFNEGVYDGLDACAMAHPGGGMPADGYDGQAPAEGKPASLARAGFIVDFVGKPAHAGAAPWMGVNAVDAAVLGYNGVSMLRQQLEPTVRVHGVIRGPNDWVNNIIPASSHVEYDVRAPDVKQAMAVRNKAIACFESAAHATGCSHTTQSKDKDIYAELRNSIRMAGVYADIMEEVFDQHIQRDGMTTASTDFGNITISACPAVHPMYLIETDGVNHTPEFTAGAATMDSHERSIKVAKGLALLGFKVLTDDVFAKKIKDEFEEQKKRLGA
modifications: OTA hydrolyzing polypeptide 4
notes: OTA-hydrolyzing polypeptide 4 of the present invention, recombinantly produced in E. coli
With B1 the “Temperature range in which 50% of the initial activity was lost” value [1] was 45-55 °C, the “Specific OTA hydrolyzing activity” value ([2]; pH 6) was 1.57 U/g and the “Specific OTA hydrolyzing activity” value ([2]; pH 7.5) was 1.43 U/g.

B2: SEQ ID NO: 3: OTA-hydrolyzing polypeptide 3 of the present invention, recombinantly produced in E. coli (protein)
chain: MARDEIPADVKALIAQTVTALHGLAPPSAEFDDETQDAVFEAIDAIDDAMWDLNKKIHDHPELGFEEHKARANLVAALCKLGFTVTNPSSLPTAFVATYTHGHGGRTFGVDAEYDALRDVGHACGHNLIAVAAVAAAAGLKAALKARNISGTVKLIGSPAEEGGGGKVILLNEGVYDCLDACVMAHPEGGMIGDDYDGSAYVGGPASLARAGFEIEFHGRGAHAGAAPWLGINALDAAVQGYTAVSMLRQQLEPTMRVHGIIQGSEKWAQNIIPSYAKVSYSTRALDVKKTLELRDKTVDCFASAAKATGCTYDVTAPETEVYAELRNNQPLADAYADLMTKAFGQKIERRGMTTASTDFGNVTYHLPAIHPGFTIESETVNHTKGFTEAAGKKDAHERTMKVAKGLAMVGAKFLADDKFAKDVRKAFEKFKREVE
modifications: OTA hydrolyzing polypeptide 3
notes: OTA-hydrolyzing polypeptide 3 of the present invention, recombinantly produced in E. coli
For B2, the “Temperature range in which 50% of the initial activity was lost” value [1] was 55-65 °C, the “Specific OTA hydrolyzing activity” value ([2]; pH 6) was 0.63 U/g and the “Specific OTA hydrolyzing activity” value ([2]; pH 7.5) was 1.44 U/g.

B3: SEQ ID NO: 2: OTA-hydrolyzing polypeptide 2 of the present invention, recombinantly produced in E. coli (protein)
chain: MARDEIPADVKALIAQTVTALHGLAPPSAEFDDETQDAVFEAIDAIDGAMWDLNKKIHDHPELGFKEHKARANLVAALCKLGFTVTNPSSLPTAFVATYTQGHGGRTFGVDAEYDALPEVGHACGHNLIAVAAVAAAAGLKAALKARNIAGTIKLIGSPAEEGGGGKVILLNEGVYDCLDACVMAHPEGGMIGNDYDGSAYVGGPASLARAGFEIEFHGRGAHAGAAPWLGINALDAAVQGYTAVSMLRQQLEPTMRVHGIIQGSEKWAQNIIPSYAKVSYSTRALDVKKTLELRDKTVDCFASAAKATGCTYELTAPETEVYAELRNNEPLADAYADLMTHAFGQKIERRGMTTASTDFGNVTYHVPAIHPGFTIESDTVNHTAGFTEAAGKKGAHERTMKVAKGLAMVGAKFLADDKFAKDVRKAFEKFKKGAQ
modifications: OTA hydrolyzing polypeptide 2
notes: OTA-hydrolyzing polypeptide 2 of the present invention, recombinantly produced in E. coli
With B3 the “Temperature range in which 50% of the initial activity was lost” value [1] was 65-75 °C, the “Specific OTA hydrolyzing activity” value ([2]; pH 6) was 3.53 U/g and the “Specific OTA hydrolyzing activity” value ([2]; pH 7.5) was 11.01 U/g.

B4: SEQ ID NO: 1: OTA-hydrolyzing polypeptide 1 of the present invention, recombinantly produced in E. coli (protein)
chain: MSDHLPADVRDLIRQTMSRLENLVPPSAAFDDETQDAVFEAIDSIDGDMLALNKAIHDNPELGFHEVKAHHHLVQALIKLGFAVTNPTSLPTAFVATWSHGSGGRTFGFNAEYDALPGVGHACGHNLIAIVAVASAAGLKAALKARNIPGTIKVIGSPAEEGGGGKVILLNEGAYDGIDACVMAHPEGGVPGIDDDGSAYTSGPATLARAGFSVELFGKAAHAGAAPWLGVNALDAAVQGYTAVSMLRQQIEPTMRVHGVFDYGKEKWVQNIIPAYAKVEYSTRALDVKSTLELRKKVISCFESAATATGCTHKVSAPETEVYAELRNNVTLADAYADFMTTAFGQKIGRVGITTASTDFGNVTYKMPAIHPGFHLISKGVNHTPEFADAAGTLDAHERAIKVAKGLAMLGAKFLQDDKFAKEVKRKFDEFKKEVGELKLTDNENEVQEVNGVMKQEHIAEQVDEIWL
modifications: OTA hydrolyzing polypeptide 1
notes: OTA-hydrolyzing polypeptide 1 of the present invention, recombinantly produced in E. coli
For B4, the “Temperature range in which 50% of the initial activity was lost” value [1] was 45-55 °C, the “Specific OTA hydrolyzing activity” value ([2]; pH 6) was 0.11 U/g and the “Specific OTA hydrolyzing activity” value ([2]; pH 7.5) was 1.20 U/g. The “OTA concentration, plasma samples, Day 14” value [3, 4] was 37 ± 3, the “OTA concentration, urine samples, Day 14” value [3, 4] was 0.00 and the “% OTA reduction, plasma samples” value [3, 4] was 9%. For the same molecule, the “% OTA reduction, urine samples” value [3, 4] was 100.0%, the “OTA concentration, plasma samples, Day 14” value [3, 5] was 350 ± 25 and the “OTA concentration, urine samples, Day 14” value [3, 5] was 25.18. The “% OTA reduction, plasma samples” value [3, 5] was 15% and the “% OTA reduction, urine samples” value [3, 5] was 48.4%.
